According to the RNAGym collection of RNA variant scans (doi:10.7554/elife.90254):

B1: OR4K15 (parent)
chain: GUUAACGGUCAUAGGCCAUGGAAACUAGGAGCACCAUUUCGCUGCCAGUGAAGAAAUGAACAAAGAAAAUCUGGGCCAGGCAGGCAUCAAAAGAAAUAGUCUUGCGCUCAACCAGAAAGUCUGUAAUCAUUUUAAGGGUA

Variants of: B1
Assay: self-cleavage, relative activity (ratio to wild type); higher = more cleavage; in vitro, sequencing; the parent is a self-cleaving ribozyme

| Variant | self-cleavage |
| --- | --- |
| A82G G83U | 0.08 |
| C77A U131C | 0.5 |
| G80A A114G | 0.05 |
| G74A A94G | 0.13 |
| A78U C105U | 0.03 |
| A78U A98U | 0.71 |
| U72G A135C | 0.33 |
| A78G G106U | 0.01 |
| A78G G106C | 0.02 |
| U72C A126G | 0.12 |
| U72C A126U | 0.4 |
| G73U A116G | 0.11 |
| U72C U130C | 0.16 |
| G74A U102C | 0.05 |
| C76U G123A | 0.13 |
| A78U U100C | 1.1 |
| C81U A86G | 0.17 |
| U72C A135U | 0.28 |
| U72C A140C | 0.44 |
| G75A A134G | 0.09 |
| A78U U127C | 0.07 |
| C81G | 0.2 |
| C81A | 0.25 |
| C81U | 0.35 |

| Variant | self-cleavage |
| --- | --- |
| A82C A96G | 0.11 |
| U72C U102C | 0.36 |
| C77U A116G | 1.22 |
| A78U A129G | 0.18 |
| A78U A129C | 0.14 |
| A82C A116G | 0.09 |
| A82G A140U | 0.53 |
| A78U A96G | 0.38 |
| A82G A86G | 0.14 |
| U72G G74A | 0.18 |
| A82G A91G | 0.12 |
| U72C A110G | 0.06 |
| A82G A114U | 0.03 |
| A82G A114G | 0.08 |
| A82C A86U | 0.13 |
| A78C C128U | 0.29 |
| G73A A78G | 0.21 |
| U72C C109A | 0.07 |
| U72C C109U | 0.06 |
| A82G A90G | 0.31 |
| G73A A86G | 0.05 |
| A82C U120C | 0.11 |
| G73A A89C | 0.14 |
| G74U C113U | 0.02 |

| Variant | self-cleavage |
| --- | --- |
| A82G A129G | 0.47 |
| G79A A98G | 0.03 |
| G79A A98U | 0.13 |
| G73A A129G | 0.07 |
| A78U A114G | 0.11 |
| A78U A114U | 0.03 |
| A82C A89C | 0.16 |
| G80A A92G | 0.16 |
| A82G G99U | 0.07 |
| G79A A94G | 0.15 |
| G79A U120A | 0.13 |
| G79A U120G | 0.11 |
| G80A U108A | 0.02 |
| C81G U127C | 0.04 |
| G79A A117G | 0.09 |
| C77U A89U | 2.73 |
| A78C A111U | 0.01 |
| G80U U100C | 0.16 |
| C76U A117G | 0.22 |
| A78C A98U | 0.58 |
| A78U A111U | 0.04 |
| A78G A96G | 0.24 |
| A78C A86U | 0.19 |
| C81A U122C | 0.22 |

| Variant | self-cleavage |
| --- | --- |
| A78G C88A | 0.17 |
| C76G A82U | 0.22 |
| U72C U100C | 0.34 |
| A78U G119A | 0.39 |
| U72C G93A | 0.32 |
| C77U G80A | 0.37 |
| G75A A92G | 0.08 |
| A78G U100G | 0.35 |
| C77U A126G | 1.49 |
| A78U A92G | 0.29 |
| U72C G136C | 0.31 |
| G79A A86G | 0.22 |
| G79A A86U | 0.09 |
| A78U C128A | 0.04 |
| A78G A118U | 0.21 |
| A82G U97C | 0.5 |
| A82G U97A | 0.92 |
| A78G C105U | 0.03 |
| G74A C81A | 0.19 |
| A82G U87A | 0.32 |
| A82G U87C | 0.46 |
| A82G A126G | 0.33 |
| A82G C112U | 0 |
| C76U A140G | 0.12 |

| Variant | self-cleavage |
| --- | --- |
| G79A U130C | 0.15 |
| A78G A92G | 0.13 |
| A78U U108C | 0.01 |
| A78C A125G | 0.04 |
| A78C U127C | 0.18 |
| A78U C88U | 0.42 |
| G73A U127C | 0.11 |
| A78U U132C | 0.48 |
| G74U G104A | 0.02 |
| A82G G138C | 0.66 |
| G74A U108A | 0.03 |
| C76U A86U | 0.08 |
| G74C U139C | 0.15 |
| A78C A90G | 0.16 |
| A78C A94G | 0.39 |
| G79U A96G | 0.1 |
| U72C C81A | 0.26 |
| A78G A129G | 0 |
| A78G A129C | 0.11 |
| A78U A91G | 0.11 |
| G74U A82G | 0.28 |
| G80U U87C | 0.22 |
| C76A G104A | 0.03 |
| G75A A116G | 0.06 |

| Variant | self-cleavage |
| --- | --- |
| G74U A94G | 0.41 |
| G73U U122C | 0.1 |
| G75U U102C | 0.12 |
| G79U A135G | 0.02 |
| U72G U132A | 0.44 |
| G74U A117G | 0.02 |
| A78G U120C | 0.19 |
| G73A A111G | 0.02 |
| A78U A126U | 0.35 |
| G75C U103A | 0.01 |
| U72C G104A | 0.01 |
| U72C U97C | 0.1 |
| A78G A89C | 0.43 |
| A78G A89U | 0.24 |
| C81A A92G | 0.26 |
| A78U A90G | 0.32 |
| A82G A116U | 0.07 |
| G79A C112G | 0.12 |
| U72C U124G | 0.07 |
| C81G A82G | 0.3 |
| G80A A91G | 0.08 |
| C77U A129G | 1.77 |
| U72C G79A | 0.32 |
| U72C U139C | 0.46 |

| Variant | self-cleavage |
| --- | --- |
| U72C U139A | 0.24 |
| U72G U120A | 0.19 |
| U72G A92G | 0.42 |
| A82G C85U | 0.32 |
| G79A U87A | 0.11 |
| G79A U87C | 0.1 |
| A82G A94G | 0.32 |
| A82G A94U | 0.64 |
| U72G A90G | 0.39 |
| U72C C76U | 0.22 |
| C77A U122C | 0.6 |
| A78G A125G | 0.1 |
| G80A A95U | 0.17 |
| A78G A82G | 0.13 |
| C76U A82G | 0.09 |
| G74C | 0.19 |
| G74A | 0.12 |
| G74U | 0.05 |
| U72G A114U | 0.6 |
| C76U A94G | 0.13 |
| A78U A125G | 0.03 |
| A78G U133C | 0.27 |
| G80A U130C | 0.08 |
